According to the supplement of paper PMC9170038:

System: MS2 coat protein
Test: apparent KD of MS2 coat protein; designed switch direction (-1 OFF switch, 1 ON switch): -1; higher = weaker reporter binding
How it was run: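 For each design, the apparent KD is the median over clusters of curves fitted to normalised cluster fluorescence. Clusters held RNA switches with common flanks, transcribed on Illumina chips by stalled E. coli RNA polymerase. These were titrated with SNAP-549-labelled MS2 coat protein, doubling from 0.7 or 1.5 nM to 3 µM, without input, with 200 uM small-molecule ligand, or with an oligonucleotide input.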

[1] = input ligand: microRNA oligo, concentration not stated
[2] = Eterna round: R95, input ligand: FMN 200 uM
[3] = Eterna round: R95, input ligand: microRNA oligo, concentration not stated
[4] = Eterna round: R95, input ligand: none

Row | Sequence | apparent KD of MS2 coat protein (input ligand: FMN 200 uM) | apparent KD of MS2 coat protein [1] | apparent KD of MS2 coat protein (input ligand: none) | apparent KD of MS2 coat protein [2] | apparent KD of MS2 coat protein [3] | apparent KD of MS2 coat protein [4]
1 | UACAUGUGAGGAUAUGUACGAAGCCCGGCUGGGCCUCGCAGGCAGAAGGCACAUGAGGAUCACCCAUGUGACCG [Enanvezave] (Eterna round: R96, puzzle: Exclusion 4) | 82.6 nM | 13.1 nM | 17.3 nM |  |  | 
2 | UACCGGCGGACCGAGGCUUUUUGCUCGUCUUGUACUACAACAUGAGGAUCACCCAUGUGGUGGUGGUCCGUUGUAGU [JL ViennaUCT Bitein mod 6] (puzzle: Sensor v3, turn-off variant 2) |  |  |  | 18.9 nM | 8.16 nM | 25.4 nM
3 | UACGAACUAGGAUAUGCAAAGGGCUCGCUUUCCUUCGAUAAACUUGAGGAUCACCCAAGUAGAAGGAGUUUGUA [Mod 39 - Jieux - Exclusion 2] (Eterna round: R97, puzzle: Exclusion 2) | 30.2 nM |  | 11.4 nM |  |  | 
4 | UACUGGACAGGAUAUGUUCUUGAGCACUUGAGGAUCACCCAAGUCAUCAAGAACUCAGGCACAGAAGGGUUUAUGG [salish99_ex5_r4_006] (Eterna round: R97, puzzle: Exclusion 5) | 25.5 nM |  | 14.8 nM |  |  | 
5 | UACUUCUGAGGAUAUACAUAGAUUUACAUGAGGAUCACCCAUGUUCCUCUUUGUAUAAAUGUAGAAGGCAGAAGAU [Mat - Exclusion 5 - JL Mod - D74] (Eterna round: R97, puzzle: Exclusion 5) | 95.6 nM |  | 231 nM |  |  | 
6 | UAGAGAGAUAAGGAUAUCUAUUAAAUUGUGCGUAGAGAAGGUAUCACAUGAGGAUCACCCAUGUGGUCUAAUAA [Eternabot (L1) Solution 88] (Eterna round: R97, puzzle: Exclusion 6) | 29.7 nM |  | 24.1 nM |  |  | 
7 | UAGAUGGGAGGAUAUACGUAGAUACAGAUUCAUGUAGUGCUACAUGAGGAUCACCCAUGUAGAAGGCCCGUCUU [JL-ex2-2.19 Mayanne mod] (puzzle: Exclusion 2) |  |  |  |  | 35.2 nM | 
8 | UAGAUGGGAGGAUAUACGUAGUUGCAGGUUCGUGUGGUGCUACAUGAGGAUCACCCAUGUAGAAGGCCCGUCUU [JL-ex2-2.30 Mayanne mod] (puzzle: Exclusion 2) |  |  |  |  | 13.3 nM | 
9 | UAGAUGGGAGGAUAUGCGUAGAUGCAGGUUCGUGUGGUGCUACAUGAGGAUCACCCAUGUAGAAGGCCCGUCUU [Mod 7 R3 JL-ex2-2.29 - Jieux - Exclusion 2] (Eterna round: R97, puzzle: Exclusion 2) | 20.7 nM |  | 17.6 nM |  |  | 
10 | UAGCAGCGAGGAUAUACAGACAGGUCCAAUACGUGUCUUGGACUUGAGGAUCACCCAAGUAGAAGGCGCCACAG [salish99_ex2_r4_602] (Eterna round: R97, puzzle: Exclusion 2) | 104 nM |  | 62 nM |  |  | 
11 | UAGCCUUUAGUUAGGAUAUGAUAUGGGAACCAUUAUCAGAAGGAACAUGAGGAUCACCCAUGUACCGACAGGGA [Eternabot (L2) Solution 9] (Eterna round: R97, puzzle: Brourd's mod of Exclusion 4) | 19.9 nM |  | 12.3 nM |  |  | 
12 | UAGGAACGAGGAUAUACACCUGCAAGUGGUGUGGGUACACCACAUGAGGAUCACCCAUGUAGAAGGCGUACCAA [Lelebi] (Eterna round: R97, puzzle: Exclusion 2) | 57.3 nM |  | 12.3 nM |  |  | 
13 | UAGGAGUCAGGAUAUGCGAGAGAUUGAAGUAAGGGAUGAGAGCAGAAGGGACAUGAGGAUCACCCAUGUAAGGA [JR_Exclu4_Sub092] (puzzle: Exclusion 4) |  |  |  | 47.7 nM | 43.1 nM | 52 nM
14 | UAGUAUCUUCAGGAUAUCAGUGGAAAACACGUAUGAGAAGGGAAGACAUGAGGAUCACCCAUGUAAAGGGUCCG [BotMod 11 - Jieux - Exclusion 6] (Eterna round: R97, puzzle: Exclusion 6) | 579 nM |  | 203 nM |  |  | 
15 | UAGUGGGUACGAAGGAGUUGUAUGAGCGGAGGCUCAGUGACAUGAGGAUCACCCAUGUAGCUUUUUGCUCGUCUUAA [JR_SV3TOV2_Sub038] (puzzle: Sensor v3, turn-off variant 2) |  |  |  | 35.7 nM | 109 nM | 32.4 nM
16 | UAGUGUUACACAGGAUAUCGCCUCUUAUUACAUGAGGAUCACCCAUGUUUAGUUAGUUACAUGUACGAGAAGGGUGUUGUAGUU [JR_ExcNG2_Sub039] (Eterna round: R96, puzzle: Exclusion NG 2) | 787 nM | 681 nM | 1010 nM |  |  | 
